These results are taken from patent publication US20230158060A1 (INFLARX, published 2023).

For this assay, the target named is GFP-tagged SARS-CoV N protein, full length (SARS-CoV, UniProt P59595 1-422). As to the kind of experiment: co-immunoprecipitation on Flag-tagged MASP-2 region beads, anti-GFP immunoblot.
Chain of GFP-tagged SARS-CoV N protein, full length (P59595 whole entry): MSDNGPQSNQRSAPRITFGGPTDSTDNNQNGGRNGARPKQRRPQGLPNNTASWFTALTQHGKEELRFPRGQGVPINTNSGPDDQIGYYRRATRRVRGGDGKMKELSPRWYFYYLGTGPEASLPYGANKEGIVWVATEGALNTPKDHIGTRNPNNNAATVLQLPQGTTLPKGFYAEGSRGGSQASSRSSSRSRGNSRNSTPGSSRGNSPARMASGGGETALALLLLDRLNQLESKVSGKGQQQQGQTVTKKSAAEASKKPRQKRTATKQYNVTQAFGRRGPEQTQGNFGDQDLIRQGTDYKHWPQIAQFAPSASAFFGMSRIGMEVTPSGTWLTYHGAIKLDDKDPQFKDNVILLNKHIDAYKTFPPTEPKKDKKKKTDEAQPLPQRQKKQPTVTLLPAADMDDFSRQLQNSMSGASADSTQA

B1: Flag-tagged MASP-2 N-terminal CUB1-EGF-CUB2 region (other, UniProt O00187 16-296, looked up, not shown: small tags and cut ends)
chain: TPLGPKWPEPVFGRLASPGFPGEYANDQERRWTLTAPPGYRLRLYFTHFDLELSHLCEYDFVKLSSGAKVLATLCGQESTDTERAPGKDTFYSLGSSLDITFRSDYSNEKPFTGFEAFYAAEDIDECQVAPGEAPTCDHHCHNHLGGFYCSCRAGYVLHRNKRTCSALCSGQVFTQRSGELSSPEYPRPYPKLSSCTYSISLEEGFSVILDFVESFDVETHPETLCPYDFLKIQTDREEHGPFCGKTLPHRIETKSNTVTITFVTDESGDHTGWKIHYTST
notes: domain: CUB1-EGF-CUB2
In the case of B1, the binding result is “no binding”.
